Patent US20110263454A1, “Methods of Identifying Functional Characteristics of Promoters, Transcription Modifying Proteins and Transcription Modulating Agents” (Salk Institute for Biological Studies, priority 2008, published 2011)

Tests used:
[1] = tested on: hTNFa promoter; assay: NHR-promoter luciferase screen, hTNFa promoter; type: cell-based, human; conditions: for Luc. act., normalized to lacZ / Normalized Luc. act., normalized to control: TNFa promoter, HR component without or with ligand; for hTNFa promoter reporter activity: transcription factor +/- ligand, control = 1.00
Outline: (§1)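 CV-1 cells were co-transfected with 50 ng NHR (homodimer or NHR/RXR heterodimer), 100 ng promoter-luciferase construct and 50 ng LacZ. Luciferase was normalized to LacZ and to a no-NHR/no-ligand control.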

[2] = tested on: mNPY promoter; assay: NHR-promoter luciferase screen, mNPY promoter; type: cell-based, mouse; conditions: for Results of assays of transcription factor (+/- ligand) with mNPY: Table 6d, luciferase activity relative to control (control = 1.00); for Luc. act., normalized to lacZ / Normalized Luc. act., normalized to control: mNPY promoter, HR component with or without ligand; for Normalized Luc. act., normalized to control: relative to control
Outline: as §1

[3] = tested on: hCAR promoter; assay: NHR-promoter luciferase screen, hCAR promoter; type: cell-based, human; conditions: for luciferase activity normalized to lacZ activity and to a control, hCAR: hCAR promoter-luciferase, CV-1 cells, NHR +/- ligand, control = 1.00; for Luc. act., normalized to lacZ / Normalized Luc. act., normalized to control: hCAR promoter, HR/ligand component
Outline: as §1

[4] = tested on: FGF1D promoter; assay: FGF family promoter luciferase reporter screen by NHRs, FGF1D; type: cell-based, human; conditions: FIG. 43, in words
Description: Screening for FGF regulation by NHRs. The methods described herein provide a straightforward, high throughput, sensitive and quantitative strategy to identify therapeutic agonists and antagonists that can predictably modulate FGF and FGFR expression for therapeutic benefit. Promoter constructs were designed and screened for all 22 members of the FGF-family for novel regulation by the NHRs. Of particular interest is the strong and specific transcriptional regulation of FGF1A, one of the alternative splice variants of FGF1, by PPARγ (FIG. 43). The FGF 1 gene is regulated by at least three (A, B and D) different promoters. Alternative splicing of these promoters to the three exons of the FGF1 gene results in identical but differentially expressed FGF1 polypeptides (FIG. 44). FGF1A is highly expressed in heart, kidney and adipose, FGF1B is highly expressed in brain and FGF1D is highly expressed in liver.

Molecule	Luc. act., normalized to lacZ [1]	Normalized Luc. act., normalized to control [1]	hTNFa promoter reporter activity [1]	Results of assays of transcription factor (+/- ligand) with mNPY [2]	Luc. act., normalized to lacZ [2]	Normalized Luc. act., normalized to control [2]	luciferase activity normalized to lacZ activity and to a control, hCAR [3]	Luc. act., normalized to lacZ [3]	Normalized Luc. act., normalized to control [3]	activation of FGF1D promoter, luciferase reporter assay [4]
LXRa: Liver X Receptor α (NR1H3), cDNA driver	994.6	1.0	1.01	0.67	56.2	0.7	1.87	58.9	1.9	moderate activation
PR: Progesterone Receptor (NR3C3), cDNA driver (protein, UniProt P06401 1-933, looked up) Progesterone receptor: MTELKAKGPRAPHVAGGPPSPEVGSPLLCRPAAGPFPGSQTSDTLPEVSAIPISLDGLLFPRPCQGQDPSDEKTQDQQSLSDVEGAYSRAEATRGAGGSSSSPPEKDSGLLDSVLDTLLAPSGPGQSQPSPPACEVTSSWCLFGPELPEDPPAAPATQRVLSPLMSRSGCKVGDSSGTAAAHKVLPRGLSPARQLLLPASESPHWSGAPVKPSPQAAAVEVEEEDGSESEESAGPLLKGKPRALGGAAAGGGAAAVPPGAAAGGVALVPKEDSRFSAPRVALVEQDAPMAPGRSPLATTVMDFIHVPILPLNHALLAARTRQLLEDESYDGGAGAASAFAPPRSSPCASSTPVAVGDFPDCAYPPDAEPKDDAYPLYSDFQPPALKIKEEEEGAEASARSPRSYLVAGANPAAFPDFPLGPPPPLPPRATPSRPGEAAVTAAPASASVSSASSSGSTLECILYKAEGAPPQQGPFAPPPCKAPGASGCLLPRDGLPSTSASAAAAGAAPALYPALGLNGLPQLGYQAAVLKEGLPQVYPPYLNYLRPDSEASQSPQYSFESLPQKICLICGDEASGCHYGVLTCGSCKVFFKRAMEGQHNYLCAGRNDCIVDKIRRKNCPACRLRKCCQAGMVLGGRKFKKFNKVRVVRALDAVALPQPVGVPNESQALSQRFTFSPGQDIQLIPPLINLLMSIEPDVIYAGHDNTKPDTSSSLLTSLNQLGERQLLSVVKWSKSLPGFRNLHIDDQITLIQYSWMSLMVFGLGWRSYKHVSGQMLYFAPDLILNEQRMKESSFYSLCLTMWQIPQEFVKLQVSQEEFLCMKVLLLLNTIPLEGLRSQTQFEEMRSSYIRELIKAIGLRQKGVVSSSQRFYQLTKLLDNLHDLVKQLHLYCLNTFIQSRALSVEFPEMMSEVIAAQLPKILAGMVKPLLFHKK	1214.8	1.2	1.24	1.09	91.7	1.1	1.00	31.5	1.0	
SHP: Small Heterodimer Partner (NR0B2), cDNA driver (protein, UniProt Q15466 1-257, looked up) Nuclear receptor subfamily 0 …: MSTSQPGACPCQGAASRPAILYALLSSSLKAVPRPRSRCLCRQHRPVQLCAPHRTCREALDVLAKTVAFLRNLPSFWQLPPQDQRRLLQGCWGPLFLLGLAQDAVTFEVAEAPVPSILKKILLEEPSSSGGSGQLPDRPQPSLAAVQWLQCCLESFWSLELSPKEYACLKGTILFNPDVPGLQAASHIGHLQQEAHWVLCEVLEPWCPAAQGRLTRVLLTASTLKSIPTSLLGDLFFRPIIGDVDIAGLLGDMLLLR	914.4	0.9	0.93	0.81	68.3	0.8	0.99	31.3	1.0	
NR4a3: NR4a3 (NR4A3; NOR1), nuclear hormone receptor cDNA driver (protein, UniProt Q92570 1-626, looked up) Nuclear receptor subfamily 4 …: MPCVQAQYSPSPPGSSYAAQTYSSEYTTEIMNPDYTKLTMDLGSTEITATATTSLPSISTFVEGYSSNYELKPSCVYQMQRPLIKVEEGRAPSYHHHHHHHHHHHHHHQQQHQQPSIPPASSPEDEVLPSTSMYFKQSPPSTPTTPAFPPQAGALWDEALPSAPGCIAPGPLLDPPMKAVPTVAGARFPLFHFKPSPPHPPAPSPAGGHHLGYDPTAAAALSLPLGAAAAAGSQAAALESHPYGLPLAKRAAPLAFPPLGLTPSPTASSLLGESPSLPSPPSRSSSSGEGTCAVCGDNAACQHYGVRTCEGCKGFFKRTVQKNAKYVCLANKNCPVDKRRRNRCQYCRFQKCLSVGMVKEVVRTDSLKGRRGRLPSKPKSPLQQEPSQPSPPSPPICMMNALVRALTDSTPRDLDYSRYCPTDQAAAGTDAEHVQQFYNLLTASIDVSRSWAEKIPGFTDLPKEDQTLLIESAFLELFVLRLSIRSNTAEDKFVFCNGLVLHRLQCLRGFGEWLDSIKDFSLNLQSLNLDIQALACLSALSMITERHGLKEPKRVEELCNKITSSLKDHQSKGQALEPTESKVLGALVELRKICTLGLQRIFYLKLEDLVSPPSIIDKLFLDTLPF	691.0	0.7	0.70	0.72	60.4	0.7	0.54	16.9	0.5	
DAX-1: DAX1 (NR0B1), cDNA driver (protein, UniProt P51843 1-470, looked up) Nuclear receptor subfamily 0 …: MAGENHQWQGSILYNMLMSAKQTRAAPEAPETRLVDQCWGCSCGDEPGVGREGLLGGRNVALLYRCCFCGKDHPRQGSILYSMLTSAKQTYAAPKAPEATLGPCWGCSCGSDPGVGRAGLPGGRPVALLYRCCFCGEDHPRQGSILYSLLTSSKQTHVAPAAPEARPGGAWWDRSYFAQRPGGKEALPGGRATALLYRCCFCGEDHPQQGSTLYCVPTSTNQAQAAPEERPRAPWWDTSSGALRPVALKSPQVVCEAASAGLLKTLRFVKYLPCFQVLPLDQQLVLVRNCWASLLMLELAQDRLQFETVEVSEPSMLQKILTTRRRETGGNEPLPVPTLQHHLAPPAEARKVPSASQVQAIKCFLSKCWSLNISTKEYAYLKGTVLFNPDVPGLQCVKYIQGLQWGTQQILSEHTRMTHQGPHDRFIELNSTLFLLRFINANVIAELFFRPIIGTVSMDDMMLEMLCTKI	854.8	0.9	0.87	1.02	86.0	1.0	1.20	38.0	1.2	
NR4a2: NR4a2 (NR4A2; NURR1), nuclear hormone receptor cDNA driver (protein, UniProt P43354 1-598, looked up) Nuclear receptor subfamily 4 …: MPCVQAQYGSSPQGASPASQSYSYHSSGEYSSDFLTPEFVKFSMDLTNTEITATTSLPSFSTFMDNYSTGYDVKPPCLYQMPLSGQQSSIKVEDIQMHNYQQHSHLPPQSEEMMPHSGSVYYKPSSPPTPTTPGFQVQHSPMWDDPGSLHNFHQNYVATTHMIEQRKTPVSRLSLFSFKQSPPGTPVSSCQMRFDGPLHVPMNPEPAGSHHVVDGQTFAVPNPIRKPASMGFPGLQIGHASQLLDTQVPSPPSRGSPSNEGLCAVCGDNAACQHYGVRTCEGCKGFFKRTVQKNAKYVCLANKNCPVDKRRRNRCQYCRFQKCLAVGMVKEVVRTDSLKGRRGRLPSKPKSPQEPSPPSPPVSLISALVRAHVDSNPAMTSLDYSRFQANPDYQMSGDDTQHIQQFYDLLTGSMEIIRGWAEKIPGFADLPKADQDLLFESAFLELFVLRLAYRSNPVEGKLIFCNGVVLHRLQCVRGFGEWIDSIVEFSSNLQNMNIDISAFSCIAALAMVTERHGLKEPKRVEELQNKIVNCLKDHVTFNNGGLNRPNYLSKLLGKLPELRTLCTQGLQRIFYLKLEDLVPPPAIIDKLFLDTLPF	735.5	0.7	0.75	0.72	60.4	0.7	0.58	18.4	0.6	
GCNF: Germ Cell Nuclear Factor (NR6A1, GCNF1), cDNA driver (protein, UniProt Q15406 1-480, looked up) Nuclear receptor subfamily 6 …: MERDEPPPSGGGGGGGSAGFLEPPAALPPPPRNGFCQDELAELDPGTISVSDDRAEQRTCLICGDRATGLHYGIISCEGCKGFFKRSICNKRVYRCSRDKNCVMSRKQRNRCQYCRLLKCLQMGMNRKAIREDGMPGGRNKSIGPVQISEEEIERIMSGQEFEEEANHWSNHGDSDHSSPGNRASESNQPSPGSTLSSSRSVELNGFMAFREQYMGMSVPPHYQYIPHLFSYSGHSPLLPQQARSLDPQSYSLIHQLLSAEDLEPLGTPMLIEDGYAVTQAELFALLCRLADELLFRQIAWIKKLPFFCELSIKDYTCLLSSTWQELILLSSLTVYSKQIFGELADVTAKYSPSDEELHRFSDEGMEVIERLIYLYHKFHQLKVSNEEYACMKAINFLNQDIRGLTSASQLEQLNKRYWYICQDFTEYKYTHQPNRFPDLMMCLPEIRYIAGKMVNVPLEQLPLLFKVVLHSCKTSVGKE	1203.7	1.2	1.22	0.64	53.5	0.6	0.93	29.2	0.9	
